The target of the assay is A型FMDV毒株. In words: cell-based or functional assay.

Neu 50 (病毒中和试验) data for one molecule are collected here from patent CN117990904A.

B1: A型口蹄疫病毒中和抗体Ab1 (VHH)
VHH: QVQLQESGGGLVQAGGSLRLSCVYSGFTFGHYSMGWYRQAPGKEREFVAAIRRSDGSTDYADSTVKGRFTISRDNAKKTVYLQMNSLKPEDTAVYYCATVRRVATLSGSSSWGQGTQVTVSS
B1 registered a Neu 50 (病毒中和试验) of 1.2 µmol/L.
